Measured values as given in patent US12472269B2, “Liver-specific inducible promoters and methods of use thereof” (ASKBIO INC., priority 2019, dated 2025).

B1: PB1-1-SV40: promoter: 2 mouse PBREM elements with SV40 minimal promoter, SEQ ID NO: 13 (nucleic acid)
DNA: TCTGTACTTTCCTGACCTTGGCACAGTGCCACCATCAACTTGCCTGACACCCATTACTCGCATCCATTCTCTCTGTACTTTCCTGACCTTGGCACAGTGCCACCATCAACTTGCCTGACACCGCTGGGAGTTCGTAGACGGACTAGCCCGGGCTCGAGATCTGCGATCTGCATCTCAATTAGTCAGCAACCATAGTCCCGCCCCTAACTCCGCCCATCCCGCCCCTAACTCCGCCCAGTTCCGCCCATTCTCCGCCCCATCGCTGACTAATTTTTTTTATTTATGCAGAGGCCGAGGCCGCCTCGGCCTCTGAGCTATTCCAGAAGTAGTGAGGAGGCTTTTTTGGAGGCCTAGGCTTTTGCAAAAAGCTTGGCATTCCGGTACTGTTGGTAAAGCCACCC
modifications: PB1-1-SV40
B2: PB1-2-SV40: promoter: 3 mouse PBREM elements with SV40 minimal promoter, SEQ ID NO: 14 (nucleic acid)
DNA: TCTGTACTTTCCTGACCTTGGCACAGTGCCACCATCAACTTGCCTGACACCCATTACTCGCATCCATTCTCTCTGTACTTTCCTGACCTTGGCACAGTGCCACCATCAACTTGCCTGACACCGCACTGAAGGTCCTCAATCGTCTGTACTTTCCTGACCTTGGCACAGTGCCACCATCAACTTGCCTGACACCGCTGGGAGTTCGTAGACGGACTAGCCCGGGCTCGAGATCTGCGATCTGCATCTCAATTAGTCAGCAACCATAGTCCCGCCCCTAACTCCGCCCATCCCGCCCCTAACTCCGCCCAGTTCCGCCCATTCTCCGCCCCATCGCTGACTAATTTTTTTTATTTATGCAGAGGCCGAGGCCGCCTCGGCCTCTGAGCTATTCCAGAAGTAGTGAGGAGGCTTTTTTGGAGGCCTAGGCTTTTGCAAAAAGCTTGGCATTCCGGTACTGTTGGTAAAGCCACCC
modifications: PB1-2-SV40
B3: PB1-CMV-MP: promoter: 1 mouse PBREM element with CMV minimal promoter, SEQ ID NO: 8 (nucleic acid)
DNA: TCTGTACTTTCCTGACCTTGGCACAGTGCCACCATCAACTTGCCTGACACCGCTGGGAGTTCGTAGACGGAGCGATTAATCCATATGCAGGTCTATATAAGCAGAGCTCGTTTAGTGAACCGTCAGATCGCCTAGATACGCCATCCACGCTGTTTTGACCTCCATAGAAGATCGCCACCC
modifications: PB1-CMV-MP
B4: PB1-3-SV40: promoter: 4 mouse PBREM elements with SV40 minimal promoter, SEQ ID NO: 15 (nucleic acid)
DNA: TCTGTACTTTCCTGACCTTGGCACAGTGCCACCATCAACTTGCCTGACACCCATTACTCGCATCCATTCTCTCTGTACTTTCCTGACCTTGGCACAGTGCCACCATCAACTTGCCTGACACCGCACTGAAGGTCCTCAATCGTCTGTACTTTCCTGACCTTGGCACAGTGCCACCATCAACTTGCCTGACACCCTGACCTCCTGCCAGCAATATCTGTACTTTCCTGACCTTGGCACAGTGCCACCATCAACTTGCCTGACACCGCTGGGAGTTCGTAGACGGACTAGCCCGGGCTCGAGATCTGCGATCTGCATCTCAATTAGTCAGCAACCATAGTCCCGCCCCTAACTCCGCCCATCCCGCCCCTAACTCCGCCCAGTTCCGCCCATTCTCCGCCCCATCGCTGACTAATTTTTTTTATTTATGCAGAGGCCGAGGCCGCCTCGGCCTCTGAGCTATTCCAGAAGTAGTGAGGAGGCTTTTTTGGAGGCCTAGGCTTTTGCAAAAAGCTTGGCATTCCGGTACTGTTGGTAAAGCCACCC
modifications: PB1-3-SV40
B5: PB1-SV40-MP: promoter: 1 mouse PBREM element with SV40 minimal promoter, SEQ ID NO: 9 (nucleic acid)
DNA: TCTGTACTTTCCTGACCTTGGCACAGTGCCACCATCAACTTGCCTGACACCGCTGGGAGTTCGTAGACGGACTAGCCCGGGCTCGAGATCTGCGATCTGCATCTCAATTAGTCAGCAACCATAGTCCCGCCCCTAACTCCGCCCATCCCGCCCCTAACTCCGCCCAGTTCCGCCCATTCTCCGCCCCATCGCTGACTAATTTTTTTTATTTATGCAGAGGCCGAGGCCGCCTCGGCCTCTGAGCTATTCCAGAAGTAGTGAGGAGGCTTTTTTGGAGGCCTAGGCTTTTGCAAAAAGCTTGGCATTCCGGTACTGTTGGTAAAGCCACCC
modifications: PB1-SV40-MP
B6: PB1-1-CMV: promoter: 2 mouse PBREM elements with CMV minimal promoter, SEQ ID NO: 16 (nucleic acid)
DNA: TCTGTACTTTCCTGACCTTGGCACAGTGCCACCATCAACTTGCCTGACACCCATTACTCGCATCCATTCTCTCTGTACTTTCCTGACCTTGGCACAGTGCCACCATCAACTTGCCTGACACCGCTGGGAGTTCGTAGACGGAGCGATTAATCCATATGCAGGTCTATATAAGCAGAGCTCGTTTAGTGAACCGTCAGATCGCCTAGATACGCCATCCACGCTGTTTTGACCTCCATAGAAGATCGCCACCC
modifications: PB1-1-CMV
B7: PB1-3-MinTK: promoter: 4 mouse PBREM elements with MinTK minimal promoter, SEQ ID NO: 12 (nucleic acid)
DNA: TCTGTACTTTCCTGACCTTGGCACAGTGCCACCATCAACTTGCCTGACACCCATTACTCGCATCCATTCTCTCTGTACTTTCCTGACCTTGGCACAGTGCCACCATCAACTTGCCTGACACCGCACTGAAGGTCCTCAATCGTCTGTACTTTCCTGACCTTGGCACAGTGCCACCATCAACTTGCCTGACACCCTGACCTCCTGCCAGCAATATCTGTACTTTCCTGACCTTGGCACAGTGCCACCATCAACTTGCCTGACACCGCTGGGAGTTCGTAGACGGAGATCCGGCCCCGCCCAGCGTCTTGTCATTGGCGAATTCGAACACGCAGATGCAGTCGGGGCGGCGCGGTCCGAGGTCCACTTCGCATATTAAGGTGACGCGTGTGGCCTCGAACACCGAGCGACCCTGCAGCGACCCGCTTAACAGCGTCAACAGCGTGCCGCAGATCTCGAGGAGCTTGGCGAGATTTTCAGGAGCTAAGGAAGCTAAAC
modifications: PB1-3-MinTk
B8: PB1-1-MinTK: promoter: 2 mouse PBREM elements with MinTK minimal promoter, SEQ ID NO: 10 (nucleic acid)
DNA: TCTGTACTTTCCTGACCTTGGCACAGTGCCACCATCAACTTGCCTGACACCCATTACTCGCATCCATTCTCTCTGTACTTTCCTGACCTTGGCACAGTGCCACCATCAACTTGCCTGACACCGCTGGGAGTTCGTAGACGGAGATCCGGCCCCGCCCAGCGTCTTGTCATTGGCGAATTCGAACACGCAGATGCAGTCGGGGCGGCGCGGTCCGAGGTCCACTTCGCATATTAAGGTGACGCGTGTGGCCTCGAACACCGAGCGACCCTGCAGCGACCCGCTTAACAGCGTCAACAGCGTGCCGCAGATCTCGAGGAGCTTGGCGAGATTTTCAGGAGCTAAGGAAGCTAAAC
modifications: PB1-1-MinTk (2xPBREM)
B9: PB1-3-CMV: promoter: 4 mouse PBREM elements with CMV minimal promoter, SEQ ID NO: 18 (nucleic acid)
DNA: TCTGTACTTTCCTGACCTTGGCACAGTGCCACCATCAACTTGCCTGACACCCATTACTCGCATCCATTCTCTCTGTACTTTCCTGACCTTGGCACAGTGCCACCATCAACTTGCCTGACACCGCACTGAAGGTCCTCAATCGTCTGTACTTTCCTGACCTTGGCACAGTGCCACCATCAACTTGCCTGACACCCTGACCTCCTGCCAGCAATATCTGTACTTTCCTGACCTTGGCACAGTGCCACCATCAACTTGCCTGACACCGCTGGGAGTTCGTAGACGGAGCGATTAATCCATATGCAGGTCTATATAAGCAGAGCTCGTTTAGTGAACCGTCAGATCGCCTAGATACGCCATCCACGCTGTTTTGACCTCCATAGAAGATCGCCACCC
modifications: PB1-3-CMV
B10: PB1-2-CMV: promoter: 3 mouse PBREM elements with CMV minimal promoter, SEQ ID NO: 17 (nucleic acid)
DNA: TCTGTACTTTCCTGACCTTGGCACAGTGCCACCATCAACTTGCCTGACACCCATTACTCGCATCCATTCTCTCTGTACTTTCCTGACCTTGGCACAGTGCCACCATCAACTTGCCTGACACCGCACTGAAGGTCCTCAATCGTCTGTACTTTCCTGACCTTGGCACAGTGCCACCATCAACTTGCCTGACACCGCTGGGAGTTCGTAGACGGAGCGATTAATCCATATGCAGGTCTATATAAGCAGAGCTCGTTTAGTGAACCGTCAGATCGCCTAGATACGCCATCCACGCTGTTTTGACCTCCATAGAAGATCGCCACCC
modifications: PB1-2-CMV

System: AXOL ARE-hepatocytes
Assay: Luciferase expression from PBREM promoters in AXOL ARE-hepatocytes, induction by CITCO
Assay type: cell-based, human
Details: for induced luciferase expression as a ratio to CMV-IE: induction with CITCO, mean of 3 biological replicates
Text: Axol Assay-Ready Expanded (ARE) Hepatocytes are primary human hepatocytes that have been expanded in vitro. Large batch sizes (up to 2000 vials) are available, ensuring a reliable, ready-to-use and consistent source of primary hepatocytes. ARE Hepatocytes express CYP enzymes, are metabolically functional, are polarized and can be infected by the Hepatitis C virus. AXOL ARE-hepatocytes express CAR negating the need to transfect with a CAR-expressing plasmid.
• AXOL assay-ready expanded (ARE) hepatocytes (Axol, ax3701) • ARE hepatocyte thawing medium (Axol, ax3705) • ARE maintenance medium (Axol, ax3710) • Virimer red transfection reagent (Lipocalyx, VR04-02-15) • CITCO, lucifierase, β-galactosidase and BCA kits as described above
ARE hepatocytes were cultured and transfected as described in the manufacturer's manual. 200,000 cells were seeded in 2 ml culture medium in collagen-coated 6 well plate. The cells were incubated for 4 h at 37° C. and 5% CO2 for sufficient adhesion. 200 μl of transfection mixture containing the DNA to be transfected (PB1-MinTK/PB1-CMV/PB1-SV40 operably linked with luciferase and β-galactosidase containing promoter) was added and the cells were incubated on an orbital shaker at 100 rpm for three hours at 37° C. and 5% CO2. 3 hrs after transfection CITCO was added to the appropriate wells. Cells were incubated under static conditions at 37° C. and 5% CO2 overnight and in the morning the medium was replaced with fresh ARE Hepatocyte Maintenance Medium. Readout was 24 hrs after induction. […]

[1] = single PBREM element, minimal promoters compared

Row | Molecule | induced luciferase expression as a ratio to CMV-IE | further results
1 | B1 | 2.6 | 
2 | B2 | 3.6 | 
3 | B3 |  | expression level compared to CMV-IE (1 μM CITCO): 10%; expression driven [1]: little to no expression
4 | B4 | 2.57 | 
5 | B5 |  | expression level compared to CMV-IE (1 μM CITCO): 55%; induction of luciferase expression (1 μM CITCO, readout 24 hrs after induction): around 7 fold; background level [1]: higher background level; expression driven [1]: highest expression
6 | B6 | 1.9 | 
7 | B7 | 2.66 | 
8 | B8 | 1.5 | 
9 | B9 | 2.67 | 
10 | B10 | 2.67 | 
